Target: GST
Assay: cross-linking; BS3 0.25 mM, 15 min at RT in PBS with 1 mM DTT, proteins mixed about 1:1; SDS-PAGE, anti-His and anti-GST Western blots

GST (natural protein), sequence (P08515 2-218): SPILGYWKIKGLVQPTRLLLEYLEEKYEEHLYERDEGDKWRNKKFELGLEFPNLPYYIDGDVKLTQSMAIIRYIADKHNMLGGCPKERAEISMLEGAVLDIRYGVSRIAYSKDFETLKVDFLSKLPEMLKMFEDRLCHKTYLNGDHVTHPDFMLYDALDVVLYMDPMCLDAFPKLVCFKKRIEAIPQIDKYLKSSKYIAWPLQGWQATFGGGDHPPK

stoichiometry N: 2
Substance: GST (natural protein)
